Measured values reported in patent US20150299305A1.

Experiments:
Assay in all cases: SPR, antibody immobilized, monomeric FcγR injected, steady state, pH 7.4; SPR, monomeric FcγR
[1] = biological target: Human FcγRI (CD64) (human) (UniProt P12314)
[2] = biological target: Human FcγRIIIb (CD16b) (human) (UniProt O75015)
[3] = biological target: Human FcγRIIIa (CD16a) (human) (UniProt P08637)
Human FcγRIIIa (CD16a) (human), sequence (P08637 17-208 limits assumed): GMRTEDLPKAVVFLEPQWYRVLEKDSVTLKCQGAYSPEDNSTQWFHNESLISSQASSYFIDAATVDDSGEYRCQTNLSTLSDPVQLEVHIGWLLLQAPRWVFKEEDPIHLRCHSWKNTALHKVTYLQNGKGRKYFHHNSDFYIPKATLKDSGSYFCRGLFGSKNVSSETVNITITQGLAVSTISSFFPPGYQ

Human FcγRIIIb (CD16b) (human), sequence (O75015 17-200 limits assumed): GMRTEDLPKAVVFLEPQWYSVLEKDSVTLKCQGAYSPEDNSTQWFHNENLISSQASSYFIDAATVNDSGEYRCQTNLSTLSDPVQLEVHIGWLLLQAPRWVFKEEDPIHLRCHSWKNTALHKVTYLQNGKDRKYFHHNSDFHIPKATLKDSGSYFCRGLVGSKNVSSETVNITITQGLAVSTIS
Human FcγRI (CD64) (human), sequence (P12314 16-288 limits assumed): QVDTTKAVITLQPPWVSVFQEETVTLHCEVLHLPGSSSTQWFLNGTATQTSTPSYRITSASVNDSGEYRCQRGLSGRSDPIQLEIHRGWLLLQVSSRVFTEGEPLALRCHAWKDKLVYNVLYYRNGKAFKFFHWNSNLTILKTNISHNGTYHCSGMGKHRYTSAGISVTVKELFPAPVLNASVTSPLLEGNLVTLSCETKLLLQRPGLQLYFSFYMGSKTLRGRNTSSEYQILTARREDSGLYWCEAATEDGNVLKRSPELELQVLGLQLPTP

B1: eculizumab (antibody, human IgG2, kappa)
heavy: QVQLVQSGAEVKKPGASVKVSCKASGYIFSNYWIQWVRQAPGQGLEWMGEILPGSGSTEYTENFKDRVTMTRDTSTSTVYMELSSLRSEDTAVYYCARYFFGSSPNWYFDVWGQGTLVTVSSASTKGPSVFPLAPCSRSTSESTAALGCLVKDYFPEPVTVSWNSGALTSGVHTFPAVLQSSGLYSLSSVVTVPSSNFGTQTYTCNVDHKPSNTKVDKTVERKCCVECPPCPAPPVAGPSVFLFPPKPKDTLMISRTPEVTCVVVDVSQEDPEVQFNWYVDGVEVHNAKTKPREEQFNSTYRVVSVLTVLHQDWLNGKEYKCKVSNKGLPSSIEKTISKAKGQPREPQVYTLPPSQEEMTKNQVSLTCLVKGFYPSDIAVEWESNGQPENNYKTTPPVLDSDGSFFLYSRLTVDKSRWQEGNVFSCSVMHEALHNHYTQKSLSLSLGK
light: DIQMTQSPSSLSASVGDRVTITCGASENIYGALNWYQQKPGKAPKLLIYGATNLADGVPSRFSGSGSGTDFTLTISSLQPEDFATYYCQNVLNTPLTFGQGTKVEIKRTVAAPSVFIFPPSDEQLKSGTASVVCLLNNFYPREAKVQWKVDNALQSGNSQESVTEQDSKDSTYSLSSTLTLSKADYEKHKVYACEVTHQGLSSPVTKSFNRGEC
Kd [1]: 3.78 µM | Kd [2]: 3.49 µM | Kd [3]: 6.78 µM
